From patent US20100260765A1 (AstraZeneca / MedImmune, published 2010)

B1: 30D7 (antibody, V domains shown)
VH: QVPLVESGGGVVQPGRSLRLSCAASGFTFSSYGMHWVRQAPGKGLEWVAVIWYDGSNKYYADSVKGRFTISRDNSKNTLYLQMNSLRAEDTAVYYCARGVTMVRGVIIARYYYGLDVWGQGTTVTVSS
VL: DIVMTQTPLSSPVTLGQPASISCRSSQSLVHSDGNTYLSWLQQRPGQPPRLLIYKISNRFFGVPDRFSGSGAGTDFTLKIGRVEAEDVGLYYCMQSTQFPLTFGGGTKVEIK
B2: 22B8 (antibody, V domains shown)
VH: QLQLQESGPGLVKPSETLSLTCTVSGGSISSRYYYWGWVRQPPGKGLEWIGTIYYSGHTYYNPSLKTRVTISVDTSKNQFSLKLISVTAADTAVYYCATQQLVLYYFDFWGQGTLVTVSS
VL: EIVLTQSPGTLSLSPGERAALSCRASQSISSSYLAWYQQRPGQAPRLLIYGASSRATGIPDRFNGSGSGTDFTLTISRLEPEDFAVYYCQQFGSSITFGQGTRLEIK
B3: 32B2 (antibody, V domains shown)
VH: EVQLLESGGGLVQPGGSLRLSCAASGFTFSNYAMSWVRQAPGKGLDWVSAISGRGGSTYYADSVKGRFTISRDNSKNTLFLLMNSLRAEDTAVYYCAKASGDDWGQGTLVTVSS
VL: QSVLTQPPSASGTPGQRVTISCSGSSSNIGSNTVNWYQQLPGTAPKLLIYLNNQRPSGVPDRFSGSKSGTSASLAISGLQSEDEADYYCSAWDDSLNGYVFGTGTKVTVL

The binders below were run against T1, KDR (human, UniProt P35968 20-1356) (assay: cell-based or functional assay).
T1 sequence (P35968 20-1356): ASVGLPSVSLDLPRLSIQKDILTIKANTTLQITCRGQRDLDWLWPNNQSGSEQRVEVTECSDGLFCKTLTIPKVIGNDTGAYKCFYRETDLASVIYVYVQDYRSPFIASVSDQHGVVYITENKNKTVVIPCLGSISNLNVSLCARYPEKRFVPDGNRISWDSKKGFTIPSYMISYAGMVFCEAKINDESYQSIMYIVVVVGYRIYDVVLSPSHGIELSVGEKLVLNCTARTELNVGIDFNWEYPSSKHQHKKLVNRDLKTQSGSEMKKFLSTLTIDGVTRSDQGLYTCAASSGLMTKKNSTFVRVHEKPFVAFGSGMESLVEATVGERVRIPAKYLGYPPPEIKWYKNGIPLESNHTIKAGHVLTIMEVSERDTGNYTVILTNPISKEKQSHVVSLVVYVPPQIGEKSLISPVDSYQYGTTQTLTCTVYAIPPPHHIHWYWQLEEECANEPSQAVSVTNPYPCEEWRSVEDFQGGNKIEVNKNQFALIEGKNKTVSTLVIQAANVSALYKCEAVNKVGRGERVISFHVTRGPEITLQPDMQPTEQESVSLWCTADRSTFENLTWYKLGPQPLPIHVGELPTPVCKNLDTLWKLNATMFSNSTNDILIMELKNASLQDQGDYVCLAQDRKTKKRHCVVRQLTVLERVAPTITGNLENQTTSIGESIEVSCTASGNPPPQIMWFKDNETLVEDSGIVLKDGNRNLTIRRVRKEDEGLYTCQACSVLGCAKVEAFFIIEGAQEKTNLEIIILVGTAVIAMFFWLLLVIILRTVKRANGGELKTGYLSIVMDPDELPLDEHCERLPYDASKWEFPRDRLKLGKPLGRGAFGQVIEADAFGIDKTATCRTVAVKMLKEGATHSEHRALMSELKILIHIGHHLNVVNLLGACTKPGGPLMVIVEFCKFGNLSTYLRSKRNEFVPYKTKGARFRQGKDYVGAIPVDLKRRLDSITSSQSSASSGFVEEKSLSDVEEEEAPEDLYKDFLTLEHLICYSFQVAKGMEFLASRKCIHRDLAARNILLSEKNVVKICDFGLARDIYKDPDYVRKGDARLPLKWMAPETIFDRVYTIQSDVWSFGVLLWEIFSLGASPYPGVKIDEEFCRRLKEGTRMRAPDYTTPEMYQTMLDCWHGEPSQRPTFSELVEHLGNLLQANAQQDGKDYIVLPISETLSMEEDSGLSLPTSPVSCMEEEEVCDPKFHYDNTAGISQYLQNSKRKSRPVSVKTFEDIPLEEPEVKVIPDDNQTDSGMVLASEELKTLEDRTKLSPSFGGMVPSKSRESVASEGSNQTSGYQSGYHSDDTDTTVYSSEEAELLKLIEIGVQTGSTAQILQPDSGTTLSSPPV
B1 was tested, and the “Activity at 133 nM (% Inhibition), 24-hour Pre-incubation at 37° C., Average” value was 38%, the “Activity at 133 nM (% Inhibition), 24-hour Pre-incubation at 37° C., N = 1” value was 39% and the “Activity at 133 nM (% Inhibition), 24-hour Pre-incubation at 37° C., N = 2” value was 37%.
For B2, the “Activity at 133 nM (% Inhibition), 24-hour Pre-incubation at 37° C., Average” value was 99%, the “Activity at 133 nM (% Inhibition), 24-hour Pre-incubation at 37° C., N = 1” value was 82% and the “Activity at 133 nM (% Inhibition), 24-hour Pre-incubation at 37° C., N = 2” value was 115%.
For B3, the “Activity at 133 nM (% Inhibition), 24-hour Pre-incubation at 37° C., Average” value was 49%, the “Activity at 133 nM (% Inhibition), 24-hour Pre-incubation at 37° C., N = 1” value was 38% and the “Activity at 133 nM (% Inhibition), 24-hour Pre-incubation at 37° C., N = 2” value was 61%.

Target: T1, KDR
Assay: cell-based or functional assay
Remark: another data set of the same source
B1 was tested, and the “Activity at 133 nM Antibody Concentration (% Survival Inhibition), Average” value (“Activity … (% Survival Inhibition), Average” for short) was -51%, the “Activity at 133 nM Antibody Concentration (% Survival Inhibition), N = 1” value (from here on “Activity … (% Survival Inhibition), N = 1”) was -9% and the “Activity at 133 nM Antibody Concentration (% Survival Inhibition), N = 2” value (“Activity … (% Survival Inhibition), N = 2” below) was -92%.
With B2 the “Activity … (% Survival Inhibition), Average” value was 88%, the “Activity … (% Survival Inhibition), N = 1” value was 88% and the “Activity … (% Survival Inhibition), N = 2” value was 87%.
With B3 the “Activity … (% Survival Inhibition), Average” value was -21%, the “Activity … (% Survival Inhibition), N = 1” value was -13% and the “Activity … (% Survival Inhibition), N = 2” value was -29%.

Target: T1, KDR
Assay: cell-based or functional assay
Remark: another data set of the same source
B1 was tested, and the “Activity at 133 nM (% Inhibition), 1-hour Pre-incubation at 4° C., Average” value was 27%, the “Activity at 133 nM (% Inhibition), 1-hour Pre-incubation at 4° C., N = 1” value was 26% and the “Activity at 133 nM (% Inhibition), 1-hour Pre-incubation at 4° C., N = 2” value was 28%.
For B2, the “Activity at 133 nM (% Inhibition), 1-hour Pre-incubation at 4° C., Average” value was 76%, the “Activity at 133 nM (% Inhibition), 1-hour Pre-incubation at 4° C., N = 1” value was 75% and the “Activity at 133 nM (% Inhibition), 1-hour Pre-incubation at 4° C., N = 2” value was 76%.
B3 was tested, and the “Activity at 133 nM (% Inhibition), 1-hour Pre-incubation at 4° C., Average” value was 29%, the “Activity at 133 nM (% Inhibition), 1-hour Pre-incubation at 4° C., N = 1” value was 25% and the “Activity at 133 nM (% Inhibition), 1-hour Pre-incubation at 4° C., N = 2” value was 33%.

Target: T1, KDR
Assay: cell-based or functional assay
Remark: another data set of the same source
For B1, the “% Inhibition of VEGF165-mediated 6-keto Prostaglandin F1α release at 133 nM Antibody Concentration, Average” value was 10%, the “% Inhibition of VEGF165-mediated 6-keto Prostaglandin F1α release at 133 nM Antibody Concentration, N = 1” value was 4% and the “% Inhibition of VEGF165-mediated 6-keto Prostaglandin F1α release at 133 nM Antibody Concentration, N = 2” value was 15%.
With B2 the “% Inhibition of VEGF165-mediated 6-keto Prostaglandin F1α release at 133 nM Antibody Concentration, Average” value was 72%, the “% Inhibition of VEGF165-mediated 6-keto Prostaglandin F1α release at 133 nM Antibody Concentration, N = 1” value was 67% and the “% Inhibition of VEGF165-mediated 6-keto Prostaglandin F1α release at 133 nM Antibody Concentration, N = 2” value was 76%.
B3 was tested, and the “% Inhibition of VEGF165-mediated 6-keto Prostaglandin F1α release at 133 nM Antibody Concentration, Average” value was 6%, the “% Inhibition of VEGF165-mediated 6-keto Prostaglandin F1α release at 133 nM Antibody Concentration, N = 1” value was 3% and the “% Inhibition of VEGF165-mediated 6-keto Prostaglandin F1α release at 133 nM Antibody Concentration, N = 2” value was 9%.

Target: T1, KDR
Assay: cell-based or functional assay
Remark: another data set of the same source
In the case of B1, the “% of Max VEGF KDR pTyr Activity (at 133 nM antibody concentration), Average” value (shortened to “% of Max VEGF KDR pTyr Activity … Average”) is reported as 12%, the “% of Max VEGF KDR pTyr Activity (at 133 nM antibody concentration), N = 1” value (shortened to “% of Max VEGF KDR pTyr Activity … N = 1”) is reported as 12% and the “% of Max VEGF KDR pTyr Activity (at 133 nM antibody concentration), N = 2” value (“% of Max VEGF KDR pTyr Activity … N = 2” for short) is reported as 12%.
With B2 the “% of Max VEGF KDR pTyr Activity … Average” value was 7%, the “% of Max VEGF KDR pTyr Activity … N = 1” value was 9% and the “% of Max VEGF KDR pTyr Activity … N = 2” value was 5%.
With B3 the “% of Max VEGF KDR pTyr Activity … Average” value was 11%, the “% of Max VEGF KDR pTyr Activity … N = 1” value was 12% and the “% of Max VEGF KDR pTyr Activity … N = 2” value was 10%.
